# In US20100330094A1 (NOVIMMUNE S A, published 2010):
# Where a chain is given by its changes, count along the chain named.
# B1: CC21R3P1_F1, scFv format (scFv)
# chain: QVQLVESGGGVVQPGRSHTLSCAASGFAFKNSGIHWVRQAPGKGLEWVAVISYDGSNKFYADSVKGRFTISRDNSQNTVYLQMTDLRPDDTAVYYCARDGSESEYLDYWGKGTLVTVSSNFMLTQPHSVSESPGKTVTISCTGSGGSIDRNYVQWYQQRPGSAPITVIYEDNQRPSGVPDRFSGSIDSSSNSASLTISGLRTDDEADYYCQSYDSINLWVFGGGTKVTVL
# B2: CF1N1R3P4_C7, scFv format (scFv)
# chain: QVQLVESGGGVVQPGRSLRLSCAASGFTFSNSGIHWVRQAPGKGLEWVAVISYDGSNKFYADSVKGRFTISRDNSKNTLYLQMNSLRAEDTAVYYCAKLRDNAEYTDYWGQGTLVTVSSNFMLTQPHSVSESPGKTVTISCTGSGGSIDRNYVQWYQQRPGSSPTTVIYEDNQRPSGVPDRFSGSIDSSSNSASLTISGLKTEDEADYYCQSYDPLPVWVFGGGTKLTVL
# B3: CF1H1R3P3_G11, scFv format (scFv)
# chain: B2 chain with A103G, T106L
# B4: CC21R3P1_H6, scFv format (scFv)
# chain: QVQLVESGGGVAQSGKSLRLSCAASGFTFSNYGMHWVRQAPGKGLEWLAVISYDGSNRYYADSVKGRFTISRDNSNNTLNLQMSSLRAEDTALYYCAKDAGGPLDYWGKGTLVTVSSQSVLTQLTQPPSVSLAPGQTATITCGGDNIGRKSVHWYQQKPGQAPVLVVYDDTDRPSGIPERFSGSNSGNTATLTISRVEAGDEADYYCQVWDSSIDHSWVFGGGTKLTVL
# B5: CC21R3P1_B9, scFv format (scFv)
# chain: EVQLVQSGGGVVQPGRSLRLSCAASGFTFSSYGMHWVRQAPGKGLEWVAVISYDGSNKYYADSVKGRFTISRDNSKNTLYLQMNSLRAEDTAVYYCAKDGGWYDWYFDLWGRGTLVTVSSSSELTQDPDVSVALGQTVRITCQGDSLTSYYASWYQQKPGQAPVLVISGNDNRPSGIPDRFSGSNSGNTASLTITGAQAEDAADYYCGSRDSSGYQVVFGAGTKLTVL
# B6: CB1R3P4_D3, scFv format (scFv)
# chain: QVQLVQFGGGVVQPGRSLRLSCAASGFTFSSYGMHWVRQAPGKGLEWVAVISYDGSIKYYADSVKGRFTISRENAKNSVYLQMDSLRVGDTAVYYCTRAGYSTDWHPDYWGQGTMVTVSSSSELTQDPAVSVALGQTVRITCQGDSLRSYYASWYQQKPGQAPVLAIYGKNNRPSGIPDRFSGSSSGNTASLTITGAQAEDEADYYCNSRDSSGNHVVFGGGTKLTVL
# B7: CB21R3P3_E5, scFv format (scFv)
# chain: QVQLVESGGGVVQPGRSLRLSCAASGFTFSSYGMHWVRQAPGKGLEWVAVISYDGSIKYYADSVKGRFTISRDNSKNTLYLQMNSLRAEDAAVYYCARAPDGHQLDYWGRGTLVTVSSNFMLTQPHSVSESPGKTVTISCTGSSGSIASNYVQWYQQRPGSAPTTVIYEDDQRPSDVPDRFSGSIDSSSNSASLTISGLRTEDEADYYCQSYVSSKWVFGGGTKLTVL
# Target: T1, recombinant human IP-10 (hIP-10) (human, UniProt P02778 22-98)
# T1 sequence (looked up): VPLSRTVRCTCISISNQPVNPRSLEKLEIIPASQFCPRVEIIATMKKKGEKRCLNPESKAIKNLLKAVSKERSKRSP
# Assay: cell-based or functional assay
Binder,Calcium flux IC50 (nM); 10 nM hIP-10; hCXCR3 L1.2 cells,Chemotaxis IC50 (nM); 2 nM hIP-10; hCXCR3 L1.2 cells,Chemotaxis IC50 (nM); 0.2 nM hIP-10; hCXCR3 L1.2 cells,Chemotaxis IC50 (nM); 1 nM hIP-10; hCXCR3 L1.2 cells
B1,36 nM,18 nM,,
B2,,,0.12 nM,
B3,7.8 nM,,0.39 nM,
B4,71 nM,,,36 nM
B5,107 nM,,,107 nM
B6,179 nM,,,72 nM
B7,39 nM,36 nM,,
